Reference: the nanobody polyreactivity screen of Harvey et al. (2022)

Assay: yeast display, Sf9 membrane polyspecificity reagent, FACS + sequencing; frameworks hold sequencing errors
Method in brief: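 Polyreactivity labels are assigned by the sorting gate from which each nanobody was recovered. The gates were low and high (top ~1%), set on anti-HA fluorescence for expression and streptavidin fluorescence for reagent binding. Before sorting, galactose-induced (36–48 hours) yeast display cells were stained for 1 hour at 4 °C with 10% biotinylated, detergent-solubilized Sf9 membrane reagent.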

| Sequence | polyreactivity (PSR sort gate) |
| --- | --- |
| QVQLVESGGGLVQAGGSLRLSCAASGRTFDIYAMGWYRQAPGKERELVADITWSDGTTYYADSVKGRFTISRDNAKNTVYLQMNSLKPEDTAVYYCNAYTVYAYDYWGQGTQVTVSS | low polyreactivity |
| QVQLVESGGGLVQAGGSLRLSCAASGRTFDRYAMGWYRQAPGKERELVAAISSGGSTYYADSVKGRFTISRDNAKNTVYLQMNSLKPEDTAVYYCAAGESGSFFIYYYWGQGTQVTVSS | low polyreactivity |
| QVQLVESGGGLVQAGGSLRLSCAASGRTFDRYAMGWYRQAPGKERELVAAITWSGGRTYYADSVKGRFTISRDNAKNTVYLQMNSLKPEDTAVYYCAADNSYRGYHSPYDYWGQGTQVTVSS | low polyreactivity |
| QVQLVESGGGLVQAGGSLRLSCAASGRTFDSYAMGWYRQAPGKERELVAAIYADSVKGRFTISRDNAKNTVYLQMNSLKPEDTAVYYCAAETYSGQTYLGEYDYWGQGTQVTVSS | low polyreactivity |
| QVQLVESGGGLVQAGGSLRLSCAASGRTFDSYTMGWYRQAPGKERELVADITFTGGSTYYADSVKGRFTISRDNAKNTVYLQMNSLKPEDTAVYYCNADREYKWYFRYDYWGQGTQVTVSS | low polyreactivity |
| QVQLVESGGGLVQAGGSLRLSCAASGRTFDTNARGWYRQAPGKERELVAVITARGGNTSYADSVKGRFTISRDNAKNTVYLQMNSLKPEDTAVYYCAARVYRAPWTYEEGNYWGQGTQVTVSS | low polyreactivity |
| QVQLVESGGGLVQAGGSLRLSCAASGRTFDTNPMGWYRQAPGKERELVAVITARGGNTSYADSVKGRFTISRDNAKNTVYLQMNSLKPEDTAVYYCAARVYRAPWTYEEGNYWGQGTQVTVSS | low polyreactivity |
| QVQLVESGGGLVQAGGSLRLSCAASGRTFDYNAIGWYRQAPGKERDFVAAISGRGGSTYYADSVKARFTISRDNAKNRVYLQMYSLKPEDTAVYYCAADLRFRYSGRYDYWGQGTQVTVSS | high polyreactivity |
| QVQLVESGGGLVQAGGSLRLSCAASGRTFDYNTMGWYRQAPGKERELVAAISASGGSTYYADSVKGRFTISRDNAKNTVYLQMNSLKPEDTAVYYCAAARAAIVPGYYSWGQGTQVTVSS | low polyreactivity |
| QVQLVESGGGLVQAGGSLRLSCAASGRTFDYYAMGWYRPAPGKERELVAAIRTSGGSTNYADSVKGRFTISRDNAQNTVYLLMNSLKPEDTAVYYCAARDRPGAYYYGGQGTQVTVSS | high polyreactivity |
| QVQLVESGGGLVQAGGSLRLSCAASGRTFEGNAMGWYRQAPGKERELVAAITSGGRTNYADSVKGRFTISRDNAKNTVYLQMNSLKPEDTAVYYCAKVYRSIGPNVSRYGLSYYYWGLGTQVTVSS | low polyreactivity |
| QVQLVESGGGLVQAGGSLRLSCAASGRTFEHYAMGWYRQAPGKERELVAAINSSDGGTYYADSVKGRITISRDNPKNTVYLQMNSLKPEDTAVYYCAAAEFGSVPGYEMDYWGQGTQVTVSS | low polyreactivity |
| QVQLVESGGGLVQAGGSLRLSCAASGRTFENNAMGWYRQAPGKERELVATIRYSGTSTYADSVKGRFTISRDNAKNTVYLQMNSLKPEDTAVYYCAKQVRYYGYKYNYWGQGTQVTVSS | high polyreactivity |
| QVQLVESGGGLVQAGGSLRLSCAASGRTFEQYAMGWYRQAPGKERELVAAISKRGGSTYYADSVKGRFTISRDNAKNTVYLQMNSLKPEDTAVYYGATEKASNYFYRFDYWGQGTQVTVSS | low polyreactivity |
| QVQLVESGGGLVQAGGSLRLSCAASGRTFESYAMGWYRQAPGKERELVAAITWSGGDTYYADSVKGRFTISRDNAKNSVYLQMNSLKPEDTAVYYCAKEQGLYSVSPYDYWGQGSQVTVSS | low polyreactivity |
| QVQLVESGGGLVQAGGSLRLSCAASGRTFETNAMGWYRQAPGKERELVAAISRSGGRTYYADSVKGRFTISRDNAKNTVYLQMNSLKPEDTAVYYCAVRQATVTGGGYWGQGTQVTVSS | high polyreactivity |
| QVQLVESGGGLVQAGGSLRLSCAASGRTFEVYAMGRYRQPPGKERELVATITYSGGITYYADSVKGRFTISRDNAKNTVYLQMNSLKPEYTAVYYPICVGGDYDYWGQGTQVTVSS | low polyreactivity |
| QVQLVESGGGLVQAGGSLRLSCAASGRTFEVYAMGWYRQAPGKERELVAAISGGDDSTYYADSVQGRFTISRDNAKNTVYLQRNSLKPEDTAVYYCNAHYPTSATLPKTVVEYDYWGQGTQVTVSS | low polyreactivity |
| QVQLVESGGGLVQAGGSLRLSCAASGRTFFDYSMGWYRQAPGKERELVAAITGGDGSTYYADSVKGRFTISRDNAKNTVYIQMNSLKTEDTAVYYCAAENTRTYWYAAMDYWGQGTQVTVSS | low polyreactivity |
| QVQLVESGGGLVQAGGSLRLSCAASGRTFFGRNVMGWYRPAPGNDRELVAAITSSGASTYYADSVKGRFTISRDNAKNTVYLQMNSLKPEDTAVYYCAAVRYVWQGYDYWGQGTQVTVSS | high polyreactivity |
| QVQLVESGGGLVQAGGSLRLSCAASGRTFFGYAMGWYRQAPGKERELVAAITSSGGRTYYADSVKGRFTISRDNAKNTVYLQMNSLKTEDTAVYYCNTVLSFRSVNIYRGRGDYWGQGTLVTVSS | high polyreactivity |

| Sequence | polyreactivity (PSR sort gate) |
| --- | --- |
| QVQLVESGGGLVQAGGSLRLSCAASGRTFFHYAMGWSRQAPGKERELVAGISSGGRTKYADSVKGRFTISRDNAKNTVYLQMNSLKPEDTAVYYCAASYIVWLTRGAPRKRFDYWGQGTQVTVSS | high polyreactivity |
| QVQLVESGGGLVQAGGSLRLSCAASGRTFFHYAMGWYRQAPGKERELVAAISYRGTSTYYADSVKGRFTISRDNAKNTVYLQMISLKPEDTAVYYCNAYSTRCGWSYRGDSWGQGTQVTVSS | high polyreactivity |
| QVQLVESGGGLVQAGGSLRLSCAASGRTFFLYAMGWYRQAPGKESEFVATISYGGGSTYYADSVKGRFTISRDNAKNTVYLQMNSLKPEDTAVYYCNALNTSQYAEGTSDYDGNMGNWGQCTQVTVSS | low polyreactivity |
| QVQLVESGGGLVQAGGSLRLSCAASGRTFFQYAMGGYRQAPGKERELVAAIRWSDSTYYADSVKGRFTISRDKAKNTVYLPMNSLKPEDTAVYYCNASVFQSEYDYWGQGTQVTVSS | low polyreactivity |
| QVQLVESGGGLVQAGGSLRLSCAASGRTFFRYAMGWYRQAPGKERELVAAISSSGGSSYYADSVKGRFTISRDNAKNTVYLQMNSLKPEDTAVYYCNRVYALTYYAKYGYDFWGQGTQVTVSS | high polyreactivity |
| QVQLVESGGGLVQAGGSLRLSCAASGRTFFRYARGGYRQAPGKERELVAAISVSGASTNYADSVKGRFTISRDNAKNTGYLQMNSQKPEDTAVYYCAARVADYDGVPLYRHGDYWGPGTQVTVSS | low polyreactivity |
| QVQLVESGGGLVQAGGSLRLSCAASGRTFFWNAMGWYRQAPGKERELVAAITWSGGSTYYADSVKGRFTISRDNAKTTVYLQMNSLKPEDTAVYYCAAVVSDYVWRYEYWGQGTQVTVSS | low polyreactivity |
| QVQLVESGGGLVQAGGSLRLSCAASGRTFFYAMGWYRQAPGKEREFVAAISWSGGSTYYADSVKGRFTISRDNAKNTVYLQMNSLKPEDTAVYYCNKVGYYGVGTSQEFDYWGQGTQVTVSS | high polyreactivity |
| QVQLVESGGGLVQAGGSLRLSCAASGRTFFYYAMGWYRQATGKERELVAAITSSGGSTNYADSVKGRFTISRDNAKNTVYLQMNSLKPEDTAVYYCNRDRRLNRVPYFDYWGQGTQVTVSS | high polyreactivity |
| QVQLVESGGGLVQAGGSLRLSCAASGRTFFYYTMGWYRQAPGKERELVAAISRSGGSTYYADSVKGRFTITRDKAKNTVYLQMNSLKPEDTAVYYCAADRSRNFDWGQGTQVTVSS | high polyreactivity |
| QVQLVESGGGLVQAGGSLRLSCAASGRTFGANAMGWYRQAPGKERELVAAISSSDDSTYYADSVKGRFTISRDNAKNTVYLQMNSLKPEDTAVYYCAAEDVYPQLDYWGQGTQVTVSS | low polyreactivity |
| QVQLVESGGGLVQAGGSLRLSCAASGRTFGANTMGWYRPAPGKERELVAAITWSGDSTYYADSVKGRFTISRDNAKNTVYLQMNSLKPEDTAVYYCAARLWRQYYYWGQGTQVTVSS | high polyreactivity |
| QVQLVESGGGLVQAGGSLRLSCAASGRTFGDYAMGGYRPAPGKESELVAAISRRGGNTYYADSVKGRFTISRDNAKNTVYLQMNSLKPDDTAVYDCAAVAYALGFASKEDYWGQGTQVTGSS | high polyreactivity |
| QVQLVESGGGLVQAGGSLRLSCAASGRTFGFNAKGRYRQAPGTERELVAAISGSGGRPYYADSVKWRFTISRDNAKNTDYLQMNSLKPEDSAVYYCAAGARRGGSGYWGQGTQVTVSS | high polyreactivity |
| QVQLVESGGGLVQAGGSLRLSCAASGRTFGGNAMGWSRQAPGKERELVAAISISGGSNTYYADSVKGRFTISRDNGKNTVYLQMNSLKPEDTAVYYCAARSTVYISSDYWGQGTQVTVSS | low polyreactivity |
| QVQLVESGGGLVQAGGSLRLSCAASGRTFGGNAMGWYRQAPGKERELVAAITGRGGSTYYADSVKGRFTISRDNAKNTVYLQMNSLKAEDTAVYYCAKQFKRGYGYDYWGQCTQVTVSS | low polyreactivity |
| QVQLVESGGGLVQAGGSLRLSCAASGRTFGGNAMGWYRQAPGKERELVATIRSSSSTNYADSVKGRFTISRDNAKNTVYLQMNSLKPEDTAVYYCARRSQRGIYSMYYWGQGTQVTVSS | low polyreactivity |
| QVQLVESGGGLVQAGGSLRLSCAASGRTFGGNAMGWYRQAPGKERELVATIRSSSSTNYADSVKGRFTISRDNAKNTVYVQMNSLKQEDTAVYYCNAARPDALNTYGYGFDYWGQGTQVTVSS | low polyreactivity |
| QVQLVESGGGLVQAGGSLRLSCAASGRTFGGNAMGWYRQAPGKEREYVAAISRSGTSTYYADSVKGRFTISRDNAKNTVYLQMNSLKPEDTGVYYCAALNYHKFAHKSDYWGQGTQVTVSS | low polyreactivity |
| QVQLVESGGGLVQAGGSLRLSCAASGRTFGGYALGWYRQAPGKERELVAAISSGGGTYADSVKGRFTISRDNAKNTVYIQMNSLKPEDTAVYYCAAGYRWYWASKPTVHYYYWGPGTQVTVSS | high polyreactivity |
